The values that follow come from US20190322748A1.

Test [1] has as its target Tim3-ECD-His-Biotin (human) (UniProt Q8TDQ0). The experiment in a line: ELISA on human Tim3. (In general: In an ELISA, binding on a coated surface is turned into a signal by an enzyme label.)
Test [2] deals with full-length human Tim3 on cells (CHO-K1 stably transfected with plasmid 15312_hTIM3-fl_pUC_Neo) (human) (UniProt Q8TDQ0). The experiment in a line: cell-based or functional assay.
The target of test [3] is monomeric cyno Tim3-ECD (cynomolgus). The experiment in a line: ELISA on cynomolgus Tim3.
In test [4] the target is full-length human Tim3 on cells (CHO-K1 stably transfected with plasmid 15312_hTIM3-fl_pUC_Neo) (human) (UniProt Q8TDQ0). The experiment in a line: cellular ELISA on CHO-TIM3.
Test [5] addresses monomeric cyno Tim3-ECD (cynomolgus). The experiment in a line: SPR BIAcore B4000, Ab captured on anti-mouse IgG, 25 C. (Surface plasmon resonance follows binding to a sensor surface in real time, without labels.)
Test [6] deals with monomeric human Tim3-ECD (human) (UniProt Q8TDQ0). Described as above.
Test [7] deals with Tim3-ECD-His-Biotin (human) (UniProt Q8TDQ0). The experiment in a line: ELISA on human Tim3 (values in relation to the samples max value).
In test [8] the target is monomeric cyno Tim3-ECD (cynomolgus). The experiment in a line: ELISA on cynomolgus Tim3 (values in relation to the samples max value).
The target in test [9] is full-length human Tim3 on cells (CHO-K1 stably transfected with plasmid 15312_hTIM3-fl_pUC_Neo) (human) (UniProt Q8TDQ0). The experiment in a line: cellular ELISA on CHO-TIM3 (values in relation to the samples max value).
Test [10] concerns the target huFc fused dimeric human Tim3-ECD (human) (UniProt Q8TDQ0). The experiment in a line: SPR BIAcore B4000, Ab captured on anti-mouse IgG, 25 C, dimeric antigen (avidity).

One may read the EC50 as the concentration needed to bring the measured effect to its halfway point. High values mean a less potent agent, low ones a more potent agent. For the substance Reference antibody Biolegend F38-2E2, the Inflexion point is 88.3 ng/mL in test [1], 210000 ng/mL in [3] and 224 ng/mL in test [4]. Also, in test [2], the IFN-gamma release in MLR at 1 µg/ml antibody, % of rec hu IL-2 (20 EU/ml) = 100% stood at 7%. Also, the IFN-gamma release in MLR at 10 µg/ml antibody, % of rec hu IL-2 (20 EU/ml) = 100% in [2] came out at 26%. Also, the IFN-gamma release in MLR at 40 µg/ml antibody, % of rec hu IL-2 (20 EU/ml) = 100% in test [2] was determined as 36%. The values for the Kd in [5], in [6] and in test [10] were 168 nM, 13.6 nM and 7.5 nM, respectively. The EC50 in [7] amounted to 0.0732 µg/mL; in test [8], 0.423 µg/mL; in [9], 0.15 µg/mL.
